Read-outs that look alike come from different tables or passages of the source. Numbered stars: 1 amine (or outer) side, 2 acyl side, 3 side chain; on linkers, the order of the positions; unused ones are H or OH. Square brackets hold non-standard residues; d marks the D form. Side chains are listed from the residue outwards. Peptide text beside a SMILES is read from it. * marks the point of attachment. X1 = N[C@@H](CN*)C(=O)N[C@@H](CC(=O)O)C(=O)N[C@@H](CS)C(=O)O; γGlu = O=C(O)[C@H](CCC(=O)[*:2])N[*:1]; PEG6 = NCCOCCOCCOCCOCCOCCOCCC(=O)O; Dap = NC[C@H](N)C(=O)O; Aoc = NCCCCCCCC(=O)O; CO = O=C([*:1])[*:2]
How the values were obtained:
[1] = molecular target: PSMA (PSMA-expressing LNCaP cells) (Homo sapiens, UniProt Q04609); test: LNCaP cell binding study; conditions: for affinity for PSMA / LNCaP cells (in words): LNCaP cells in culture; for competitive inhibition of binding by excess PMPA: LNCaP cells, 100-fold excess PMPA; for Kd: PSMA-positive LNCaP cells in culture, 1 h at 37 °C
Sequence of PSMA (PSMA-expressing LNCaP cells) (Q04609 whole entry): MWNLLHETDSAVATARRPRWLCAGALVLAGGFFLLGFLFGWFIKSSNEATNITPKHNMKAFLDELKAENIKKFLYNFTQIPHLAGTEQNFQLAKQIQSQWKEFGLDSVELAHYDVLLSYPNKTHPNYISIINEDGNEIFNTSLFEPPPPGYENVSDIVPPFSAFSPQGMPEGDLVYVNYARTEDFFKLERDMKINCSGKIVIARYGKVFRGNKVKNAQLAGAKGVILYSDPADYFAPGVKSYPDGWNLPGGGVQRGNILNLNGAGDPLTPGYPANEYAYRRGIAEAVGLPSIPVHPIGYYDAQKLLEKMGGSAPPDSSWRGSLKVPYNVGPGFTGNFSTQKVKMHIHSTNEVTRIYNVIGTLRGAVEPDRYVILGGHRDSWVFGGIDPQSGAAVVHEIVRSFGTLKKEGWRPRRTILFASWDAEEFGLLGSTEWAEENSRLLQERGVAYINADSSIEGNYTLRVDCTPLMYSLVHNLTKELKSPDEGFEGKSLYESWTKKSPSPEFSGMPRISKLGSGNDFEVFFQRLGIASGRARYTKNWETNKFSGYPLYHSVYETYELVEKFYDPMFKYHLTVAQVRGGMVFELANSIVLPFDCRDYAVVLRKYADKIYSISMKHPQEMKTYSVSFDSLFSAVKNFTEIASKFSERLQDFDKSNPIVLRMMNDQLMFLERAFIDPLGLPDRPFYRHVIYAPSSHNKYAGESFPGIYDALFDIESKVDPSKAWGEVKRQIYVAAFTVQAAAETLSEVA

[2] = assay type: in vivo, athymic nu/nu mice; conditions: mouse, ip
LNCaP tumor xenografts = assay type: in vivo, athymic nu/nu mice; conditions: for tumor-specific accumulation by whole-body radioimaging: 4 h after ip injection; for Tumor:Tissue blood / Tumor:Tissue heart / Tumor:Tissue liver / Tumor:Tissue lung / Tumor:Tissue muscle / Tumor:Tissue skin / Tumor:Tissue spleen: mouse, in vivo, ip; for accumulation in PSMA-positive tumors by γ-counting (in words): tissue biodistribution, 4 h
[3] = system: PSMA-negative human tumor xenografts; conditions: two PSMA-negative human tumor xenografts; cited from earlier work
[4] = male, athymic nu/nu, in vivo, 67 nmol, total radioactivity, tumor uptake, average % ID/g tissue

Compound | affinity for PSMA / LNCaP cells (in words) [1] | competitive inhibition of binding by excess PMPA [1] | Kd [1] [nM] | tissue uptake at 4 h [2, 4] [%ID/g] | tissue uptake at 4 h ([2]; in vivo, % ID/g kidney) [%ID/g] | tumor-specific accumulation by whole-body radioimaging (LNCaP tumor xenografts; radioimaging) | Tumor:Tissue blood (LNCaP tumor xenografts) | Tumor:Tissue heart (LNCaP tumor xenografts) | Tumor:Tissue liver (LNCaP tumor xenografts) | Tumor:Tissue lung (LNCaP tumor xenografts) | Tumor:Tissue muscle (LNCaP tumor xenografts) | Tumor:Tissue skin (LNCaP tumor xenografts) | Tumor:Tissue spleen (LNCaP tumor xenografts) | internalization by LNCaP cells ([1]; 1 h at 4 °C vs 37 °C) | tissue uptake at 4 h ([2]; kidney, 67 nmol, % ID/g kidney, kidney, 4 h after ip injection) [%ID/g] | LNCaP tumor uptake with coinjection of excess PMPA (LNCaP tumor xenografts; competition with 100-fold excess PMPA, radioimaging) | uptake in PSMA-negative tumors [3] | accumulation in PSMA-positive tumors by γ-counting (in words) (LNCaP tumor xenografts)
N[C@@H](CNC(=O)[C@H](Cc1ccccc1)NC(=O)[C@H](CCC(=O)O)NC(=O)CC[C@H](NC(=O)N[C@@H](CCC(=O)O)C(=O)O)C(=O)O)C(=O)N[C@@H](CC(=O)O)C(=O)N[C@@H](CS)C(=O)O [compound 4] (H-[Dap]([Phe-Glu-γGlu-CO-Glu])-Asp-Cys-OH) | somewhat lower affinities | nearly quantitative competition | 60 | 9.8 ± 2.4 | 3.4 | accumulated predominantly in the PSMA-positive LNCaP tumors | 91.7 | 112.2 | 62.9 | 101.8 | 115.1 | 92.3 | 66.7 | – | – | – | – | –
N[C@@H](CNC(=O)[C@H](CCC(=O)O)NC(=O)[C@H](Cc1ccccc1)NC(=O)CCCCCCCNC(=O)CC[C@H](NC(=O)N[C@@H](CCC(=O)O)C(=O)O)C(=O)O)C(=O)N[C@@H](CC(=O)O)C(=O)N[C@@H](CS)C(=O)O [compound 6] (H-[Dap]([Glu-Phe-Aoc-γGlu-CO-Glu])-Asp-Cys-OH) | somewhat lower affinities | nearly quantitative competition | 31 | 9.8 ± 2.4 | 42.9 | accumulated predominantly in the PSMA-positive LNCaP tumors | 51.4 | 93.3 | 11.6 | 18.9 | 74.2 | 28.7 | 4.5 | – | – | – | – | –
N[C@@H](CNC(=O)[C@H](Cc1ccccc1)NC(=O)[C@H](Cc1ccccc1)NC(=O)CNC(=O)[C@H](CCC(=O)O)NC(=O)[C@H](Cc1ccccc1)NC(=O)CC[C@H](NC(=O)N[C@@H](CCC(=O)O)C(=O)O)C(=O)O)C(=O)N[C@@H](CC(=O)O)C(=O)N[C@@H](CS)C(=O)O [compound 7] ({Glu-CO-γGlu}-FEGFF-X1) | – | – | – | – | – | accumulated predominantly in the PSMA-positive LNCaP tumors | – | – | – | – | – | – | – | – | – | – | – | –
N[C@@H](CNC(=O)[C@H](Cc1ccccc1)NC(=O)[C@H](Cc1ccccc1)NC(=O)CCCCCCCNC(=O)CC[C@H](NC(=O)N[C@@H](CCC(=O)O)C(=O)O)C(=O)O)C(=O)N[C@@H](CC(=O)O)C(=O)N[C@@H](CS)C(=O)O [compound 5] (H-[Dap]([Phe-Phe-Aoc-γGlu-CO-Glu])-Asp-Cys-OH) | most avid interaction | nearly quantitative competition | 13.8 ± 3.9 | 9.8 ± 2.4 | – | accumulated predominantly in the PSMA-positive LNCaP tumors | 36.4 | 80.9 | 20.2 | 35.2 | 78.9 | 30.7 | 18.4 | internalization of the DUPA conjugate at physiological temperature | 37.8 | eliminated LNCaP tumor uptake | no uptake | –
N[C@@H](CNC(=O)[C@H](Cc1ccccc1)NC(=O)CCOCCOCCOCCOCCOCCOCCNC(=O)CC[C@H](NC(=O)N[C@@H](CCC(=O)O)C(=O)O)C(=O)O)C(=O)N[C@@H](CC(=O)O)C(=O)N[C@@H](CS)C(=O)O [compound 8] (H-[Dap]([Phe-PEG6-γGlu-CO-Glu])-Asp-Cys-OH) | weak affinity | – | 338 | – | – | not observed | – | – | – | – | – | – | – | – | – | – | – | did not accumulate
N[C@@H](CNC(=O)CC[C@H](NC(=O)N[C@@H](CCC(=O)O)C(=O)O)C(=O)O)C(=O)N[C@@H](CC(=O)O)C(=O)N[C@@H](CS)C(=O)O [compound 3] (H-[Dap]([γGlu-CO-Glu])-Asp-Cys-OH) | weak affinity | – | 176 | – | – | not observed | – | – | – | – | – | – | – | – | – | – | – | did not accumulate

— paper PMC9190123 (Molecular pharmaceutics, 2009)
